Measured values from the nanobody polyreactivity screen of Harvey et al. (2022).

Test: yeast display, Sf9 membrane polyspecificity reagent, FACS + sequencing; frameworks hold sequencing errors
Outline: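 Galactose induction of a Saccharomyces cerevisiae BJ5465 synthetic nanobody display library ran 36–48 hours. The cells were then stained for 1 hour at 4 °C with 10% biotinylated, detergent-solubilized Sf9 membrane reagent, pulled down on streptavidin microbeads and FACS-sorted into low and high (top ~1%) gates on expression and reagent-binding fluorescence. Labels for polyreactivity follow the gate of origin.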

Sequence | polyreactivity (PSR sort gate)
QAQLQESCGSLVQAGGGQRLSCAASGYISVGTVIGWYRQAPSKERELVASIDQGANTNYADSVKGRFTISRDNAKNNVYLKMNSLKPEDTAVYYCATESTYILNYWGQGTQVTVSS | low polyreactivity
QVQLVESGGGLVQAGGSLRLSCAASGSTFFRYARGWYIQAPGKEREFVAAISKRGGSTHYADSVKGRFTISRDNAKKTVYLQMNSLKPADTAVYYCAASSFTSSYNYWGQGTQVTVSS | high polyreactivity
QVQLVESGGGLVQAGGSLRLSCAASGIIFDGNAMGWYRQAPGKERELVAAISSGGSTNYADSVKGRFTISRDNAKNTVYLQMNSLKPEDTAVYYCAARYTGKYEREYIYWGQGTQVTVSS | high polyreactivity
QVHLVESGGGLVQAGGILRLSCAASGFTFIHYGMGWYRQAPGKERELVAAISSRGGRTYYADSVKGRFTISRDNAKNTVYLQMNSLKPEDTAVYYCNRDYAVISYGEYDSWGQGTEVTVSS | high polyreactivity
QVQLVESGGGLVQAGGSLRLICAASGRTFSVYAMGWYRQAPGKERELVAAISWNGGNTYYADSVKGRFTISRDNAKNTVYLQMNSLKPEDTAVYYCAAERFLARRYYYWGQGTQVTVSS | low polyreactivity
QVQLVESGGGLVQAGGSLRLSCASSGSIFALNAMGWYRQAPGKERELVAAISSSGGNTYYADSVKGRFTISRDNAKNTVYLQMNSLKPEDTAVYYCNRVAYRNDFDYWGQGTQVTVSS | low polyreactivity
QVQLVESGGGLVQAGGSLRLSCAASGSTFIKNAMGWYRQAPGKERELVAAIPWGGGSTYYADSVKGRFTISRDNAKNTVYLQMNSLKPEDTAVYYCAAGNDIWRYYGYDYWGQGTQVTVSS | low polyreactivity
QVQLVESGGGLVQAGGSLRLSCAASGGIIRVYVMGWSRQAPGKERELVAAISRRGGSTYYADSVKGRFTISRDNAKNTVYLQMNSLKPEDTAVYYCAAAVRPRANTTYQRPRYYYWGQGTQVTVSS | high polyreactivity
QVQLVESVGGLVQAGGSLRLSCAASGRIFGSNAMGWYRPAPGKERELVAAISLSGTSTYYADSVKGRFTISRDNAKNTVYLQMNSLKPEDTAVYYCAAGLPGGTYFWGQGTQVTVSS | high polyreactivity
QVQLVESGGGLVQAGGSLRLSCAASGITFSGHAMGWYRQAPGKERELVAAITGSGGGTYYADSVMGRFTISRDNAKNTVYLQMNCLKPEDTAVYYCNADNYYYSGFDYWGQGTQVTVSS | low polyreactivity
QVQLVESGGGLVQAGGSLRLSCAASGFIFWAYDMGWYRQAPGKERELVAGIDWSGGSTYYADSVKGRFTISRDNAKNTVYLQMNSLKPEDTAVYYCAADRLLYGGGREYWGQGTQVTVSS | high polyreactivity
QVQLVESGGGLVQAGGSLRLSCAASGIIFRYYAMGWYRQAPGKERELVAAISGRGGSTYYADSVKGRFTISRDNAKNTVYLQMNSLKPEDTAVYYCAIYVSWPLYYYWGQGTQVTVSS | low polyreactivity
QVQLVESGGGLVQAGGSLRLSCAASGSTFPYYVMGWYRQAPGKERELVAAIDESGDRTYYADSVKGRFTISRDNAKNTVYLQMNSLKPEDTAVYYCAAEGWYEYWYDYWGQGTQVTVSS | high polyreactivity
QVQLVESGGGLVQAGGSLRLSCAASGSIFTKYVMGWYRQAPGKERELVAAITYRGGSTYYADSVKGRFTISRDNAKNTVYLQMNSLKPEDTAVYDCAAEYYRYKYTAYRTDDYWGQGTQVTVSS | high polyreactivity
QVQLVESGGGLVQAGGSLRLSCAASGYTFTGYAMGWYRQAPGKERELVAAISWNGGSTFYADSVKGRFTISRDNAKNTVYLQMNSLKPEDTAVYYCATPRKLAYSPKLDYWGQGTQVTVSS | low polyreactivity
QVQLVESGGGLVQAGGSLRLSCAASGSTFANYAMGWYRQAPGKERELVAVISWGGGSTYYADSVKGRFTISRDNAKNTVYLQMNSLKPEDTAVYYCAAVYDEYQTTHEYDYWGQGTQVNVSS | low polyreactivity
QVQLVESGGGLVQAGGSLRLSCAASGRTSYTNAMGWYRQAPGKERELVAAINYSGGSTYYADSVKGRFTISRDNAKNTVYLQMNSLKPEDIAVYYCAAERYYWYTEMGYWGQGTQGTVSS | high polyreactivity
